Experimental data reported in patent US9504755B2, “Multi-arm polymeric alkanoate conjugates” (Nektar Therapeutics, priority 2008, dated 2016).
Marks after values point to notes of the source that are not given here.

Tests used:
H460 tumors = experiment: Anti-tumor activity in H460 non-small cell lung mouse xenograft model; type: in vivo
Description: H460, LS174T and LoVo tumors were established in female athymic nude mice. Groups of 10 mice received a total of three single doses of 4-ARM-PEG20K-BA-DOC or docetaxel administered every 7 days (q7d×3) at several doses up to a maximum tolerated dose (MTD). Control groups received no treatment after tumor implant. Animals were weighed daily for the first five days and twice weekly thereafter. Tumor volumes were measured twice weekly after the first drug injection.
Anti-tumor activity was measured as changes in tumor volume, time to reach endpoint, and complete or partial tumor regression.
Treatment outcome was evaluated by Tumor Growth Delay (TGD), which is defined as the increase in median time to endpoint in a treatment group compared to the control group. Here it is expressed as % TGD, as a percentage to the median time to endpoint of the control group.
A tumor whose volume was reduced to 50% or less for three consecutive measurements compared to its volume on Day 1 was considered to be in partial regression. Complete regression was defined as volume […] 13.5 mm^3 for three consecutive measurements.
Acceptable toxicity was defined as a group mean body weight (BW) loss of less than 20% during the study and not more than one treatment-related death among ten treated animals.

[1] = Plasma and tumor pharmacokinetics in H460 tumor-bearing nude mice; type: in vivo, mouse; details: for AUClast, analyte docetaxel, plasma / AUClast, analyte docetaxel, tumor / Tmax, analyte docetaxel, plasma / Tmax, analyte docetaxel, tumor / Cmax, analyte docetaxel, plasma / Cmax, analyte docetaxel, tumor: single IV; for AUClast, analyte docetaxel, plasma / AUClast, analyte docetaxel, tumor: 25 mg/kg docetaxel or 33 mg/kg conjugate (MTDs); for Tmax, analyte docetaxel, plasma / Tmax, analyte docetaxel, tumor / Cmax, analyte docetaxel, plasma / Cmax, analyte docetaxel, tumor: 25 mg/kg docetaxel or 33 mg/kg conjugate
Description: To assess whether the improved antitumor activity was due to greater plasma and tumor docetaxel exposure following 4-ARM-PEG20K-BA-DOC administration, plasma and tumor homogenates were analyzed after a single IV administration of 4-ARM-PEG20K-BA-DOC or docetaxel in mice bearing H460 tumors. In looking at each of 4-ARM-PEG20K-BA-DOC and docetaxel dosed at their respective maximum tolerated doses (MTDs) of 33 and 25 mg/kg, the following was observed. […] The maximum plasma docetaxel concentration with 4-ARM-PEG20K-BA-DOC was 13-fold lower than that with docetaxel.
The objective of this study was to compare docetaxel pharmacokinetics following 4-ARM-PEG20K-BA-docetaxel with that following docetaxel administration, in plasma and tumor tissue of athymic female mice bearing H460 NSCLC tumors and to determine the effects on complete blood counts. This example summarizes the pharmacokinetic results.
H460 tumor cells were grown in vitro and implanted subcutaneously into female HRLN nude mice. When tumor sizes reached between 172 and 288 mg, animals were dosed by intravenous bolus injection with 25 mg/kg docetaxel or 33 mg/kg 4-ARM-PEG20K-BA-docetaxel at a dosing volume of 10 mL/kg. These dose levels correspond to the maximum tolerated doses for docetaxel and 4-ARM-PEG20K-BA-docetaxel administered on a q7d×3 schedule in this tumor model. Blood and tumor samples (n=7 timepoints with n=3/timepoint) were collected from 0 to 7 days after IV injection. Plasma and tumor samples were analyzed for docetaxel and 4-ARM-PEG20K-BA-docetaxel.

[2] = Pharmacokinetics after IV infusion in Beagle dogs; type: in vivo, dog
Description: The objective of the study was to assess the pharmacokinetics and excretion of docetaxel and 4-ARM-PEG20K-BA-docetaxel after intravenous infusion to dogs.
Pharmacokinetics were evaluated in male dogs (4 dogs/dose level) dosed with 0, 0.75, 2, or 4 mg/kg (0, 15, 40, and 80 mg/m^2/dose) of 4-ARM-PEG20K-BA-docetaxel or 0.75 mg/kg (15 mg/m^2) docetaxel. 4-ARM-PEG20K-BA-docetaxel and docetaxel were administered via a cephalic or saphenous vein disposable catheter as 60-min intravenous infusions at 4 mL/kg/hr. Seventeen blood samples were obtained by jugular venipuncture or Abbacoth IV catheter between 0 and 168 hr post-dose. Plasma concentrations of 4-ARM-PEG20K-BA-docetaxel and docetaxel were determined.

[3] = Stability in mouse plasma; type: in vitro ADME; details: 37° C.
Description: (§1) The objective of the study was to assess the stability of 4-ARM-PEG20K-BA-docetaxel in mouse, rat, dog, and human plasma.
(§2) 4-ARM-PEG20K-BA-docetaxel was spiked ([…]; 60 μM) into heparinized, pooled male mouse, rat, and dog plasma; mixed sex pooled human plasma; and phosphate buffered saline. Triplicate samples were incubated at 37° C. for 0, 15, 30, 60, 120, and 240 min. Aliquots were removed at each timepoint and analyzed for disappearance of 4-ARM-PEG20K-BA-docetaxel and appearance of docetaxel using the validated dog plasma analytical method.

Stability in dog plasma = type: in vitro ADME; details: 37° C.
Description: as §1, §2

[4] = Stability in phosphate buffered saline; type: physicochemical; details: 37° C.
Description: as §1, §2

[5] = 18.7 mg/kg (56.1 mg/m^2), q7d×3
[6] = 25 mg/kg (75 mg/m^2), q7d×3 (MTD of docetaxel)
[7] = 33.3 mg/kg (99.9 mg/m^2), q7d×3
[8] = 19 mg/kg conjugate (extrapolated) vs 25 mg/kg docetaxel
[9] = 33 mg/kg conjugate vs 25 mg/kg docetaxel
[10] = 33 mg/kg conjugate vs 25 mg/kg docetaxel, listed as Conjugate Lot 1
[11] = 33 mg/kg conjugate vs 25 mg/kg docetaxel, listed as Conjugate Lot 2
[12] = single IV 33 mg/kg conjugate, listed as Conjugate Lot 1, 33 mg/kg
[13] = single IV 33 mg/kg conjugate, listed as Conjugate Lot 2, 33 mg/kg
[14] = listed as 4-ARM-PEG20K-BA-docetaxel
[15] = male dogs, average over 0.75, 2, 4 mg/kg
[16] = male dogs, single IV dose 0.75 mg/kg
[17] = male dogs, single IV dose 2 mg/kg
[18] = male dogs, single IV dose 4 mg/kg

## 4-ARM-PEG20K-Butanoate-Linked Docetaxel Conjugate [4-ARM-PEG20K-BA-DOC]
H460 tumors; 14 mg/kg (42 mg/m^2), q7d×3
  BW Loss (%): 0/0%
  No. Surviving/No. Treated Mice: 10/10
  TGD (%): −1%
H460 tumors; [5]
  BW Loss (%): 6.2%
  Day of BW Nadir: 22
  No. Surviving/No. Treated Mice: 10/10
  TGD (%): 56* %
H460 tumors; 19 mg/kg (58% MTD), q7d×3
  Tumor growth delay (%): 56%
H460 tumors; 25 mg/kg (75 mg/m^2), q7d×3
  Day of BW Nadir: 29
  No. Surviving/No. Treated Mice: 10/10
H460 tumors; [6]
  BW Loss (%): 10.4%
  TGD (%): 72** %
H460 tumors; 33 mg/kg (MTD)
  Decrease in body weight: 14.2%
H460 tumors; 33 mg/kg (MTD), q7d×3
  Tumor growth delay (%): 122%
H460 tumors; [7]
  BW Loss (%): 14.2%
  Day of BW Nadir: 22
  No. Surviving/No. Treated Mice: 10/10
  TGD (%): 122** %
H460 tumors; 4-ARM-PEG20K-BA-DOC at 19 mg/kg (58% of its MTD), docetaxel doses less than 25 mg/kg
  antitumor activity below MTD: retained significant antitumor activity
H460 tumors; each at MTD
  % TGD fold greater than for docetaxel: 2.5 fold
[1]; 19 mg/kg (58% MTD), extrapolated from the 33 mg/kg dose
  AUC, docetaxel in plasma: 3488^# hr*ng/mL
[1]; [8]
  4-ARM-PEG20K-BA-DOC to Docetaxel Ratio, plasma AUC: 0.6
  4-ARM-PEG20K-BA-DOC to Docetaxel Ratio, tumor AUC: 1.3
[1]; 33 mg/kg
  conjugate AUC, fold lower in tumor compared to plasma: approximately 2 fold
  conjugate Cmax, fold lower in tumor compared to plasma: 17 fold
[1]; [9]
  Conjugate to Docetaxel ratio, AUC, docetaxel in plasma: 1.0
  Conjugate to Docetaxel ratio, AUC, docetaxel in tumor: 2.3
  maximum plasma docetaxel concentration, fold lower than with docetaxel: 13 fold
  plasma docetaxel AUC compared with docetaxel treatment: similar
  tumor docetaxel AUC, fold greater than for docetaxel: 2 fold
[1]; 33 mg/kg conjugate vs 25 mg/kg docetaxel, listed as 4-ARM-PEG20K-BA-docetaxel
  maximum plasma docetaxel concentration, fold lower than with docetaxel: about 14 fold
[1]; [10]
  Conjugate to Docetaxel ratio, AUC, docetaxel in plasma: 1.0
  Conjugate to Docetaxel ratio, AUC, docetaxel in tumor: 2.3
  Conjugate to Docetaxel ratio, Cmax, docetaxel in plasma: 0.08
  Conjugate to Docetaxel ratio, Cmax, docetaxel in tumor: 1.3
[1]; [11]
  Conjugate to Docetaxel ratio, AUC, docetaxel in plasma: 0.9
  Conjugate to Docetaxel ratio, AUC, docetaxel in tumor: 2.7
  Conjugate to Docetaxel ratio, Cmax, docetaxel in plasma: 0.06
  Conjugate to Docetaxel ratio, Cmax, docetaxel in tumor: 2.0
[1]; by 168 hr post-dose, 33 mg/kg
  conjugate tumor to plasma ratio: about 7
[1]; for up to 168 hr after single IV 33 mg/kg conjugate
  plasma docetaxel concentration: above 5 ng/mL
[1]; from 24 hr post dose through the end of sampling
  tumor docetaxel concentrations, fold higher than after docetaxel: approximately 5 fold
[1]; single IV 33 mg/kg conjugate
  Tmax, analyte conjugate, plasma: 0.5 h
[1]; single IV 33 mg/kg conjugate, listed as 4-ARM-PEG20K-BA-docetaxel, 33 mg/kg
  Tmax, analyte conjugate, tumor: ≤ 4 h
[1]; [12]
  AUClast, analyte conjugate, plasma: 1097.606 µg·h/mL
  AUClast, analyte conjugate, tumor: 652.823 µg·h/mL
  Cmax, analyte conjugate, plasma: 128354 ng/mL
  Cmax, analyte conjugate, tumor: 7062 ng/mL
  Tmax, analyte conjugate, tumor: 4 h
[1]; [13]
  AUClast, analyte conjugate, plasma: 1852.51 µg·h/mL
  AUClast, analyte conjugate, tumor: 718.068 µg·h/mL
  Cmax, analyte conjugate, plasma: 118209 ng/mL
  Cmax, analyte conjugate, tumor: 7675 ng/mL
[1]
  AUClast, analyte docetaxel, plasma: 6.013 µg·h/mL
  AUClast, analyte docetaxel, tumor: 313,558 hr*ng/mL
[1]; listed as Conjugate Lot 1
  AUClast, analyte docetaxel, tumor: 313558 ng·h/mL
  Cmax, analyte docetaxel, plasma: 195 ng/mL
  Cmax, analyte docetaxel, tumor: 2931 ng/mL
  Tmax, analyte docetaxel, plasma: 12 h
  Tmax, analyte docetaxel, tumor: 12 h
[1]; listed as Conjugate Lot 2
  AUClast, analyte docetaxel, plasma: 5.57 µg·h/mL
  AUClast, analyte docetaxel, tumor: 380617 ng·h/mL
  Cmax, analyte docetaxel, plasma: 162 ng/mL
  Cmax, analyte docetaxel, tumor: 4623 ng/mL
[1]; [14]
  Tmax, analyte docetaxel, plasma: 0.5 h
  Tmax, analyte docetaxel, tumor: ≤ 12 h
[2]; dogs, equivalent dose levels of 0.75 mg/kg
  plasma docetaxel AUC, fold lower than after docetaxel: ~7 fold
[2]; [15]
  CL, analyte conjugate, average (±SD): 0.13 mL/min/kg
  T1/2, analyte conjugate, average (±SD): 32 ± 4 h
  Vss, analyte conjugate, average (±SD): 0.26 ± 0.04 L/kg
[2]; male dogs, average over 0.75, 2, 4 mg/kg, listed as 4-ARM-PEG20K-BA-docetaxel
  T1/2, analyte conjugate, average (±SD): 31 h
[2]; [16]
  AUCinf, analyte conjugate: 104.247 µg·h/mL
  AUClast, analyte conjugate: 93.084 µg·h/mL
  AUClast, analyte docetaxel: 0.064 µg·h/mL
  CL, analyte conjugate: 0.12 mL/min/kg
  Cmax, analyte conjugate: 7084 ng/mL
  Cmax, analyte docetaxel: 2.1 ng/mL
  T1/2, analyte conjugate: 28 h
  Tmax, analyte conjugate: 1.1 h
  Tmax, analyte docetaxel: 0.88 h
  Vss, analyte conjugate: 0.23 L/kg
[2]; [17]
  AUCinf, analyte conjugate: 245.446 µg·h/mL
  AUClast, analyte conjugate: 232.378 µg·h/mL
  AUClast, analyte docetaxel: 0.153 µg·h/mL
  CL, analyte conjugate: 0.14 mL/min/kg
  Cmax, analyte conjugate: 17731 ng/mL
  Cmax, analyte docetaxel: 6.3 ng/mL
  T1/2, analyte conjugate: 35 h
  Tmax, analyte conjugate: 1.4 h
  Tmax, analyte docetaxel: 1.1 h
  Vss, analyte conjugate: 0.26 L/kg
[2]; [18]
  AUCinf, analyte conjugate: 611.47 µg·h/mL
  AUClast, analyte conjugate: 597.336 µg·h/mL
  AUClast, analyte docetaxel: 0.326 µg·h/mL
  CL, analyte conjugate: 0.12 mL/min/kg
  Cmax, analyte conjugate: 33570 ng/mL
  Cmax, analyte docetaxel: 19 ng/mL
  T1/2, analyte conjugate: 32 h
  Tmax, analyte conjugate: 6.8 h
  Tmax, analyte docetaxel: 12 h
  Vss, analyte conjugate: 0.31 L/kg
[3]; 60 μM
  Conjugate remaining at 4 hr (%): 72%
  Docetaxel released at 4 hr (%): 20%
[3]; 4 hr
  Mass balance (%): 92%
Stability in dog plasma; 60 μM
  Conjugate remaining at 4 hr (%): 93%
  Docetaxel released at 4 hr (%): 3%
Stability in dog plasma; 4 hr
  Mass balance (%): 95%
[4]; 60 μM
  Docetaxel released at 4 hr (%): 0.6%
[4]; 4 hr
  Mass balance (%): 86%
